Measured values: patent US12016906B2, “Pharmaceutical composition for anaemia” (Frimline Private Limited, priority 2018, dated 2024)

Key:
Assay type in all cases: in vivo, male Wistar rats (Rat Rattus)
Details in all cases: IDD rats
[1] = tested on: Iron deficient Diet (IDD) induced anaemia in rats; assay: Hb level in IDD induced anaemia in rats
Experimental: (§1) Screening of pharmaceutical composition/formulation comprising combination of Lactoferrin+Guanosine Nucleotide or a pharmaceutically acceptable salt thereof with or without optional ingredients against Iron deficient Diet (IDD) induced anaemia in rats. For this study different parameters like Hb Level, Hematocrit level, Serum Iron level, Ferroportin level, Serum Ferritin level, Hepcidin level and IL-6 Level were evaluated. The following trials were carried out by taking reference from Wang Xl, Liu S, Xu H, Yan W, Effects of recombinant human lactoferrin on improving the iron status of IDA. Wei Sheng Yan Jiu.
(§2) 72 male Wistar rats (Rat Rattus) (6 per group) were maintained in animal house in a light/dark atmosphere based on a 12 hour cycle having temperature and relative humidity in the range of 22±3° C. and 30-70% respectively. To maintain the appropriate conditions, temperature and relative humidity were recorded three times daily. All animals were acclimatized for a minimum period of five days. Animals were maintained in the test setup for minimum 30 minutes once during the acclimatization period to reduce the stress. Animals were weighed on the day of receipt and observed daily for abnormalities if any. Detailed records of acclimatization were also maintained. Rats were housed 6 per cage in clean, sterilized Polypropylene cages. […]
After 3 weeks of respective dietary intervention, the level of Hemoglobin was determined in each animal.
(§3) After 5 weeks (35 days) of respective dietary intervention, once again hemoglobin level, HCT % level and serum iron level were analyzed and then, respective drug treatment was started with continuous administration of Iron deficient diets in all groups as mentioned above in Table 1.
(§4) After 9 weeks of respective drug treatment (total after 14 weeks from start of the study—98 days), various biochemical parameters were measured to evaluate the effect of respective individual and combination therapy on iron deficient anaemia model (G3 to G12). […]

[2] = tested on: Iron deficient Diet (IDD) induced anaemia in rats; assay: Hematocrit % level in IDD induced anaemia in rats
Experimental: as §1, with “Jiu. 2012 January; 41(1):13-7, 22 and Nora M. El-Sheikh, the Protective Effect of Soybean and Thyme on Iron Deficiency Anemia in Rats, the Egyptian Journal of Hospital Medicine (2008) Vol., 33: 510-520 as available.” for “Jiu.”
as §2, with “any.” for “any. Detailed records of acclimatization were also maintained. Rats were housed 6 per cage in clean, sterilized Polypropylene cages.”
(§5) After 3 weeks of respective dietary intervention, the level of Hemoglobin was determined in each animal. […]
as §3, §4

[3] = tested on: Iron deficient Diet (IDD) induced anaemia in rats; assay: Serum iron level in IDD induced anaemia in rats
Experimental: as §1, with “Jiu. 2012 January; 41(1):13-7, 22 and Nora M. El-Sheikh, the Protective Effect of Soybean and Thyme on Iron Deficiency Anemia in Rats, the Egyptian Journal of Hospital Medicine (2008) Vol., 33: 510-520 as available.” for “Jiu.”
as §2, with “any.” for “any. Detailed records of acclimatization were also maintained. Rats were housed 6 per cage in clean, sterilized Polypropylene cages.”
as §5, §3, §4

[4] = tested on: Iron deficient Diet (IDD) induced anaemia in rats; assay: Ferroportin level in IDD induced anaemia in rats
Experimental: as §1, with “Jiu. […]” for “Jiu.”
(§6) 72 male Wistar rats (Rat Rattus) (6 per group) were maintained in animal house in a light/dark atmosphere based on a 12 hour cycle having temperature and relative humidity in the range of 22±3° C. and 30-70% respectively. To maintain the appropriate conditions, temperature and relative humidity were recorded three times daily. […]
(§7) After 5 weeks (35 days) of respective dietary intervention, once again hemoglobin level, HCT % level and serum iron level were analyzed and then, respective drug treatment was started with continuous administration of Iron deficient diets in all groups as mentioned above in Table 1. […]

[5] = tested on: Iron deficient Diet (IDD) induced anaemia in rats; assay: Serum ferritin level in IDD induced anaemia in rats
Experimental: as §1, with “Jiu. […]” for “Jiu.”
as §6, §7

[6] = tested on: Iron deficient Diet (IDD) induced anaemia in rats; assay: Hepcidin level in IDD induced anaemia in rats
Experimental: as §1, with “Jiu. […]” for “Jiu.”
as §6, §7

[7] = tested on: Iron deficient Diet (IDD) induced anaemia in rats; assay: IL-6 level in IDD induced anaemia in rats
Experimental: as §1
as §6, with “daily. All animals were acclimatized for a minimum period of five days.” for “daily.”
as §7

[8] = Day 98, after 9 weeks of treatment p.o.

B1: Lactoferrin: multifunctional globular glycoprotein of the transferrin family, about 80 kDa; individual component group (protein, UniProt P02788 20-710, looked up)
Lactotransferrin: GRRRSVQWCAVSQPEATKCFQWQRNMRKVRGPPVSCIKRDSPIQCIQAIAENRADAVTLDGGFIYEAGLAPYKLRPVAAEVYGTERQPRTHYYAVAVVKKGGSFQLNELQGLKSCHTGLRRTAGWNVPIGTLRPFLNWTGPPEPIEAAVARFFSASCVPGADKGQFPNLCRLCAGTGENKCAFSSQEPYFSYSGAFKCLRDGAGDVAFIRESTVFEDLSDEAERDEYELLCPDNTRKPVDKFKDCHLARVPSHAVVARSVNGKEDAIWNLLRQAQEKFGKDKSPKFQLFGSPSGQKDLLFKDSAIGFSRVPPRIDSGLYLGSGYFTAIQNLRKSEEEVAARRARVVWCAVGEQELRKCNQWSGLSEGSVTCSSASTTEDCIALVLKGEADAMSLDGGYVYTAGKCGLVPVLAENYKSQQSSDPDPNCVDRPVEGYLAVAVVRRSDTSLTWNSVKGKKSCHTAVDRTAGWNIPMGLLFNQTGSCKFDEYFSQSCAPGSDPRSNLCALCIGDEQGENKCVPNSNERYYGYTGAFRCLAENAGDVAFVKDVTVLQNTDGNNNEAWAKDLKLADFALLCLDGKRKPVTEARSCHLAMAPNHAVVSRMDKVERLKQVLLHQQAKFGRNGSDCPDKFCLFQSETKNLLFNDNTECLARLHGKTTYEKYLGPQYVAGITNLKKCSTSPLLEACEFLRK
- Hemoglobin Pre-treatment ([1]; Day 35, before treatment): 8.8 g/dL
- Hemoglobin Post-treatment [1, 8]: 10.3 g/dL
- Hemoglobin % Change compared to Disease control ([1]; Day 98): 58.8%
- Hematocrit Pre-treatment ([2]; Day 35, before treatment): 35.33%
- Hematocrit Post-treatment [2, 8]: 40.17%
- Hematocrit % Change compared to Disease control ([2]; Day 98): 56.3%
- Serum IRON Pre-treatment ([3]; Day 35, before treatment): 3.08 ppm
- Serum IRON Post-treatment [3, 8]: 5.31 ppm
- Serum IRON % Change compared to Disease control ([3]; Day 98): 99.1%
- Ferroportin Post-treatment [4, 8]: 3.6 ng/mL
- Ferroportin % Change compared to Disease control ([4]; Day 98): 31.4%
- Ferritin Post-treatment [5, 8]: 680 ng/mL
- Ferritin % Change compared to Disease control ([5]; Day 98): −8.1%
- Hepcidin Post-treatment [6, 8]: 3830 ng/mL
- Hepcidin % Change compared to Disease control ([6]; Day 98): −13.0%
- IL-6 Post-treatment [7, 8]: 57.2 pg/mL
- IL-6 % Change compared to Disease control ([7]; Day 98): −8.2%
